Assay results as given in the supplement of paper PMC7877785.
± gives the uncertainty stated by the source.

Experiment: self-splicing fitness, log relative to wild type (ln ratio); higher = more splicing; Tetrahymena group I intron in knt gene, E. coli kanamycin selection, DiMSum; sequences stand for … in CUCUCU…GGAGGGAAAAGUUAUCAGGCAUGCACCUGGUAGCUAGUCUUUAAACCAAUAGAUUGCAUCGGUUUAAAAGGCAAGACCGUCAAAUUGCGGGAAAGGGGUCAACAGCCGUUCAGUACCAAGUCUCAGGGGAAACUUUGAGAUGGCCUUGCAAAGGGUAUGGUAAUAAGCUGACGGACAUGGUCCUAACCACGCAGCCAAGUCCUAAGUCAACAGAUCUUCUGUUGAUAUGGAUGCAGUUCACAGACUAAAUGUCGGUCGGGGAAGAUGUAUUCUUCUCAUAAGAUAUAGUCGGACCUCUCCUUAAUGGGAGCUAGCGGAUGAAGUGAUGCAACACUGGAGCCGCUGGGAACUAAUUUGUAUGCGAAAGUAUAUUGAUUAGUUUUGGAGUACUCGUGGUCG
In short: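 Pooled colonies went to amplicon sequencing on an Illumina HiSeq 2500 after six replicate transformations. The plates were LB agar with 100 μg/mL carbenicillin, 50 μM IPTG and 0.2% rhamnose, with or without 25 μg/mL kanamycin, incubated overnight at 37°C or 30°C. The E. coli BL21(DE3) library had all eight P1ex-region intron nucleotides randomised, the intron placed in the knt kanamycin-resistance gene on pET-22b(+). DiMSum fitness is the error-weighted combination of replicate fold changes, kanamycin against none, normalised to wild type.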

| Sequence | self-splicing fitness (ln) (30 °C) | self-splicing fitness (ln) (37 °C) |
| --- | --- | --- |
| UCUAAGCAAUAUUACGGCUU | -4.01 ± 0.37 | -1.22 ± 0.26 |
| CCCAAGCAAUAUUACGUUUU | -3.95 ± 0.18 | -3.26 ± 0.2 |
| ACUUAGCAAUAUUACGCCAC | -3.2 ± 0.31 | -3.59 ± 0.31 |
| CAGUAGCAAUAUUACGUGAG | -1.18 ± 0.067 | -0.54 ± 0.12 |
| AUCCAGCAAUAUUACGGGGG | -3.15 ± 0.16 | -1.96 ± 0.15 |
| GCCAAGCAAUAUUACGUCCA | -2.32 ± 0.18 | 0.44 ± 0.2 |
| CCGUAGCAAUAUUACGAUGC | -4.08 ± 0.36 | -1.39 ± 0.23 |
| UUUCAGCAAUAUUACGAAAU |  | -2.26 ± 0.4 |
| GAAUAGCAAUAUUACGGUCA | -0.00851 ± 0.072 | -0.154 ± 0.077 |
| UGUAAGCAAUAUUACGAGUA | -1.48 ± 0.11 | -0.65 ± 0.12 |
| AAACAGCAAUAUUACGGCAG | -2.08 ± 0.099 | -0.063 ± 0.1 |
| ACAAAGCAAUAUUACGUCGC | -2.42 ± 0.11 | -2.23 ± 0.16 |
| GUCAAGCAAUAUUACGAAGU | -2.51 ± 0.092 | -1.16 ± 0.1 |
| UGAAAGCAAUAUUACGUAUG | -1.53 ± 0.098 | -1.21 ± 0.14 |
| AAAAAGCAAUAUUACGCUCC | -1.14 ± 0.13 | -0.319 ± 0.17 |
| GUUAAGCAAUAUUACGGGUC | -1.33 ± 0.34 | -1.77 ± 0.41 |
| CCGAAGCAAUAUUACGGAGG | -4.7 ± 0.31 | -2.44 ± 0.21 |

| Sequence | self-splicing fitness (ln) (30 °C) | self-splicing fitness (ln) (37 °C) |
| --- | --- | --- |
| CCCUAGCAAUAUUACGUGUG | -4.41 ± 0.24 | -2.43 ± 0.13 |
| GCUGAGCAAUAUUACGUUAA | -3.04 ± 0.34 | -2.78 ± 0.32 |
| CUACAGCAAUAUUACGCCCU | -3.11 ± 0.2 | -2.85 ± 0.29 |
| ACGUAGCAAUAUUACGGAUA | -2.48 ± 0.15 | -0.584 ± 0.11 |
| CCUGAGCAAUAUUACGAGUG | -1.44 ± 0.097 | -0.572 ± 0.12 |
| AUAGAGCAAUAUUACGAUCG | -1.08 ± 0.14 | -1.4 ± 0.27 |
| CCUGAGCAAUAUUACGGGUA | -2.9 ± 0.27 | -2.07 ± 0.31 |
| UUUGAGCAAUAUUACGUCCU | -3.03 ± 0.27 | -1.77 ± 0.2 |
| UGUCAGCAAUAUUACGUUCA | -0.292 ± 0.1 | -0.052 ± 0.14 |
| AACAAGCAAUAUUACGACCA | -0.617 ± 0.086 | -0.382 ± 0.12 |
| GGAAAGCAAUAUUACGUAAG | -1.87 ± 0.13 | -1.18 ± 0.15 |
| UGUUAGCAAUAUUACGCAAC | -2.82 ± 0.44 |  |
| GCCCAGCAAUAUUACGUAUA | -2.1 ± 0.11 | -1.33 ± 0.11 |
| CCGAAGCAAUAUUACGCUAG | -2.1 ± 0.18 | -1.87 ± 0.22 |
| CGGGAGCAAUAUUACGUUCG | -3.74 ± 0.47 | -1.75 ± 0.27 |
| CUAGAGCAAUAUUACGUUCA | -3.21 ± 0.24 | -1.36 ± 0.29 |
| UACCAGCAAUAUUACGGCAU | -1.37 ± 0.089 | -0.029 ± 0.11 |
